The numbers were not newly measured in article PMC7925366, which cites them from elsewhere.

Usually Kd stands for the constant that tells how readily two partners part at equilibrium.

Where “and” joins values, the source holds several entries; their conditions need not be identical. Equal entries are not always repeated. Where two headings read alike, the source gives them in different places.

In data set [1] the target is vimentin coils 1A and 1B (Homo sapiens) (UniProt P08670).
Data set [2] has the same target. Kind of data set: MST.

Chain of UniProt P08670 (P08670 96-245): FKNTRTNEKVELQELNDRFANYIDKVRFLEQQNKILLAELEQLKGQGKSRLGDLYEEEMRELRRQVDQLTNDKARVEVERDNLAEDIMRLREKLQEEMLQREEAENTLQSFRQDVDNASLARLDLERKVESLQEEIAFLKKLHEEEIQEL

As for envoplakin PRD (from UniProt Q92817), in data set [1], the Kd was 19 µM. For “periplakin linker domain (from UniProt O60437)”, the dissociation constant (Kd) in data set [2] is 31 µM and 70 µM.
